Data as given in paper PMC4278327, “Pathways driving the endocytosis of mutant and wild-type EGFR in cancer” (Oncoscience, 2014).

Molecular target: T1, wild-type EGFR (epidermal growth factor receptor) (UniProt P00533 25-1210)
T1 construct: EGFR, wild type, expressed from the plasmid pcDNA3.1-EGFR; Probably the whole human receptor, expressed in cells that have no EGFR of their own; source: MDA-MB-435, transfected (pcDNA3.1-EGFR), in lysate
Test: co-IP; lysates of MDA-MB-435 cells transfected with EGFR plasmids, immunoprecipitated with the anti-EGFR antibody IMC-C225; western blot with the anti-S2R^PGRMC1 antibody PGR-UK1; representative of three independent experiments
Conditions: partners not purified

B1: S2R^PGRMC1 (sigma-2 receptor / progesterone receptor membrane component 1) (natural protein)
chain: not shown
notes: PGRMC1 (progesterone receptor membrane component 1), endogenous in MDA-MB-435 human breast cancer cells, detected with the antibody PGR-UK1; source: endogenous, MDA-MB-435 lysate
fold co-precipitated, wild-type EGFR against the EGFR-Δ747-749/A750P mutant: 2.4 fold
